In patent publication US20220064644A1 (TAIPEI MEDICAL UNIVERSITY, published 2022):

T1: GST-Q43-HTTEX1, P42858
T1 chain: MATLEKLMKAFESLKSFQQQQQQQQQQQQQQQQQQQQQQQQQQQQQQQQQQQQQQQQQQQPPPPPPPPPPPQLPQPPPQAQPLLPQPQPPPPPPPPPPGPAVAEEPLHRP


How the values were obtained:
[1] = target: ATXN3-84Q (mutant ATXN3), P54252
[2] = target: ATXN3-28Q (normal ATXN3), P54252
GST-Q43-HTTEX1, P42858 = target: T1, GST-Q43-HTTEX1, P42858
GST protein = target: T2, GST protein (UniProt P08515 1-218 = GST); experiment: GST pull-down with purified recombinant proteins, Western blot
T2 construct: Negative control in the pull-down assays
Procedure: The indicated lysates (1 mg) were incubated with purified recombinant GST or GST-Q₂₅-HTTEX1 protein as indicated for 60 min at 4° C. to allow complex formation. GST served as a negative control. The protein complexes were analyzed by Western blotting. The amount of PIAS1-domain-deletion mutant was normalized to the corresponding bait (GST-Q₂₅-HTTEX1 protein). The data are presented as the mean±SEM (N=4). **p<0.001 and ****p<0.0001 by one-way ANOVA. (FIG. 12 (C)) Purified recombinant 6×His-S/T rich region only of PIAS1 was incubated with purified recombinant GST or GST-Q₂₅-HTTEX1 protein for 60 min at 4° C. GST served as a negative control. The protein complexes were analyzed by Western blotting. The red arrowhead and yellow arrowhead mark the GST-Q₂₅-HTTEX1 and GST proteins, respectively. The data shown here represent three independent experiments.
GST Pull-down Assay. Cell lysates were harvested using a nondenaturing lysis buffer (137 mM NaCl, 1% NP-40, 20 mM Tris pH 8.0, and 1 mM EDTA) containing a protease inhibitor cocktail and 1× phosphatase inhibitor cocktail (Roche) and subjected to rotation at 4° C. for 1 hr. […] The bound proteins were analyzed with SDS-PAGE and Western blotting. […]

T2 sequence (P08515 whole entry): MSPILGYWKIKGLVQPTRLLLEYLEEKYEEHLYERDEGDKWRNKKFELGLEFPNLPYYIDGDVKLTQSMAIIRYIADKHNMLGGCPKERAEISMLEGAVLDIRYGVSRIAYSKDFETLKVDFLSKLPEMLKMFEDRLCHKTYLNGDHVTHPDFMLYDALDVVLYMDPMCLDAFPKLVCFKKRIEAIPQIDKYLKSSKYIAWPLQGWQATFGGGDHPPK
ATXN3-28Q (normal ATXN3), P54252, sequence (P54252 whole entry, looked up, tested part not stated): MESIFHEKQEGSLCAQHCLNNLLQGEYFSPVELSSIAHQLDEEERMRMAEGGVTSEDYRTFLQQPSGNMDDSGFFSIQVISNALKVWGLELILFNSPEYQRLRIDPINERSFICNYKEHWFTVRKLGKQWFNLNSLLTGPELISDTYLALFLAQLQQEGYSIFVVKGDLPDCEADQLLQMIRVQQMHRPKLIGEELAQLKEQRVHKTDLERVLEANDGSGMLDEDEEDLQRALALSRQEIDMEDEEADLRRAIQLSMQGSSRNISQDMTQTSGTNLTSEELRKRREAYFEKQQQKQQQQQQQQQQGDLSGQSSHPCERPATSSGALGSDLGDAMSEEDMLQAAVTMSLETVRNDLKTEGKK
ATXN3-84Q (mutant ATXN3), P54252, sequence (P54252 whole entry, looked up, change not shown, tested part not stated): as the sequence (P54252 whole entry, looked up, tested part not stated) above

Binder	in vitro SUMOylation assay (SUMO3 conjugation of ATXN3) [1]	in vitro SUMOylation assay (SUMO3 conjugation of ATXN3) [2]	in vitro SUMOylation of GST-Q43-HTTEX1 (Western blot shift) (GST-Q43-HTTEX1, P42858)	binding result (GST protein)
wild-type PIAS1 (Homo sapiens protein inhibitor of activated STAT 1) (protein) MADSAELKQMVMSLRVSELQVLLGYAGRNKHGRKHELLTKALHLLKAGCSPAVQMKIKELYRRRFPQKIMTPADLSIPNVHSSPMPATLSPSTIPQLTYDGHPASSPLLPVSLLGPKHELELPHLTSALHPVHPDIKLQKLPFYDLLDELIKPTSLASDNSQRFRETCFAFALTPQQVQQISSSMDISGTKCDFTVQVQLRFCLSETSCPQEDHFPPNLCVKVNTKPCSLPGYLPPTKNGVEPKRPSRPINITSLVRLSTTVPNTIVVSWTAEIGRNYSMAVYLVKQLSSTVLLQRLRAKGIRNPDHSRALIKEKLTADPDSEIATTSLRVSLLCPLGKMRLTIPCRALTCSHLQCFDATLYIQMNEKKPTWVCPVCDKKAPYEHLIIDGLFMEILKYCTDCDEIQFKEDGTWAPMRSKKEVQEVSASYNGVDGCLSSTLEHQVASHHQSSNKNKKVEVIDLTIDSSSDEEEEEPSAKRTCPSLSPTSPLNNKGILSLPHQASPVSRTPSLPAVDTSYINTSLIQDYRHPFHMTPMPYDLQGLDFFPFLSGDNQHYNTSLLAAAAAAVSDDQDLLHSSRFFPYTSSQMFLDQLSAGGSTSLPTTNGSSSGSNSSLVSSNSLRESHSHTVTNRSSTDTASIFGIIPDIISLD	When PIAS1 and ATP (ATP is necessary for SUMOylation activation) participated the reaction process, formed ATXN3 SUMO conjugation (FIG. 6 (B)), both normal and mutant ATXN3	When PIAS1 and ATP (ATP is necessary for SUMOylation activation) participated the reaction process, formed ATXN3 SUMO conjugation (FIG. 6 (B)), both normal and mutant ATXN3	The addition of PIAS1^WT enhanced the SUMOylation of GST-Q43-HTTEX1	–
PIAS1 gene variant 3 (PIAS1^S510G) (protein) MADSAELKQMVMSLRVSELQVLLGYAGRNKHGRKHELLTKALHLLKAGCSPAVQMKIKELYRRRFPQKIMTPADLSIPNVHSSPMPATLSPSTIPQLTYDGHPASSPLLPVSLLGPKHELELPHLTSALHPVHPDIKLQKLPFYDLLDELIKPTSLASDNSQRFRETCFAFALTPQQVQQISSSMDISGTKCDFTVQVQLRFCLSETSCPQEDHFPPNLCVKVNTKPCSLPGYLPPTKNGVEPKRPSRPINITSLVRLSTTVPNTIVVSWTAEIGRNYSMAVYLVKQLSSTVLLQRLRAKGIRNPDHSRALIKEKLTADPDSEIATTSLRVSLLCPLGKMRLTIPCRALTCSHLQCFDATLYIQMNEKKPTWVCPVCDKKAPYEHLIIDGLFMEILKYCTDCDEIQFKEDGTWAPMRSKKEVQEVSASYNGVDGCLSSTLEHQVASHHQSSNKNKKVEVIDLTIDSSSDEEEEEPSAKRTCPSLSPTSPLNNKGILSLPHQASPVSRTPGLPAVDTSYINTSLIQDYRHPFHMTPMPYDLQGLDFFPFLSGDNQHYNTSLLAAAAAAVSDDQDLLHSSRFFPYTSSQMFLDQLSAGGSTSLPTTNGSSSGSNSSLVSSNSLRESHSHTVTNRSSTDTASIFGIIPDIISLD	–	–	Compared with PIAS1^WT, PIAS1^S510G induced a much lower level of SUMOylation of GST-Q43HTTEX1	–
6xHis-S/T rich region only of PIAS1 (other, human, UniProt O75925 480-651, looked up, domain: S/T rich region; Purified recombinant protein from BL21 cells; also called S/T only; S/T-only PIAS1; not shown: 6xHis tag from the pRSETA-6xHis vector) TCPSLSPTSPLNNKGILSLPHQASPVSRTPSLPAVDTSYINTSLIQDYRHPFHMTPMPYDLQGLDFFPFLSGDNQHYNTSLLAAAAAAVSDDQDLLHSSRFFPYTSSQMFLDQLSAGGSTSLPTTNGSSSGSNSSLVSSNSLRESHSHTVTNRSSTDTASIFGIIPDIISLD	–	–	–	no binding
